Legend:
[1] = molecular target: PDGFRα-V242K (UniProt P16234)
[2] = molecular target: PDGFRα-V242K (UniProt P16234); remark: listed apart in the source
[3] = molecular target: HCMV gH/gL/gO complex (strain TR; gO allele gO1b) (human cytomegalovirus (HCMV) strain TR)

Row | Substance | rate of gH/gL/gO-PDGFRα-dependent cell–cell fusion, as percent of parental gO1b (% of parental gO1b) [2] | further results
1 | HCMV gH/gL/gO complex (strain TR; gO allele gO1b) |  | rate of gB-mediated cell–cell fusion (split luciferase, live cells); ARPE19 target cells with PDGFRα against those without [1]: > 100 fold
2 | HCMV gH/gL/gO complex with gO allele gO1c | 107 | 
3 | soluble PDGFRα-FC (from UniProt P16234 24-528) (Fc fusion) |  | inhibition of the rate of gH/gL/gO-PDGFRα-dependent cell–cell fusion (pair that is blocked: m1 and m2) [3]: 2.5 fold
4 | HCMV gH/gL/gO complex with gO allele gO1a | 83 | 
5 | HCMV gH/gL/gO complex with gO allele gO2a | 112 | 
